Results taken from patent publication US20240002497A1.

Legend:
[1] = target: huNav1.7α (human Nav1.7 alpha subunit, expressed without β subunits) (human) (UniProt Q15858); assay: FACS, HEK293 cells; SD MFI 2
[2] = target: huNav1.7α + β1-β2-β3 (human Nav1.7α co-expressed with Navβ1, Navβ2 and Navβ3) (human) (UniProt Q15858); assay: FACS, CHO Flp-In cells; SD MFI 12
[3] = target: huNav1.7α + β1 (human Nav1.7α co-expressed with Navβ1) (human) (UniProt Q15858); assay: FACS, HEK293 cells; SD MFI 6

- Mean MFI [1]: 723 MFI
- Mean MFI [2]: 566 MFI
- Mean MFI [3]: 778 MFI
Substance: Negative control (Table 33)
